Measurements published in article PMC11257990 (2024).

Molecular target: UBE2L3 (human, UniProt P68036 1-154)
Assay: ITC

UBE2L3, sequence (P68036 whole entry): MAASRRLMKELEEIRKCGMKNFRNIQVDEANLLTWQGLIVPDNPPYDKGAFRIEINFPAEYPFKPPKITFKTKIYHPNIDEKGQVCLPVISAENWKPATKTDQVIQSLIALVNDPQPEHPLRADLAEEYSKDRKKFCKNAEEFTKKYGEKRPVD

B1: CUL9^ARIH-RBR (domain or fragment)
chain: SPEAVATLASLQLPAGRTMSPQEVEGLMKQTVRQVQETLNLEPDVAQHLLAHSHWGAEQLLQSYSEDPEPLLLAAGLCVHQAQAVPVRPDHCPVCVSPLGCDDDLPSLCCMHYCCKSCWNEYLTTRIEQNLVLNCTCPIADCPAQPTGAFIRAIVSSPEVISKYEKALLRGYVESCSNLTWCTNPQGCDRILCRQGLGCGTTCSKCGWASCFNCSFPEAHYPASCGHMSQWVDDGGYYDGMSVEAQSKHLAKLISKRCPSCQAPIEKNEGCLHMTCAKCNHGFCWRCLKSWKPNHKDYYNCSAMVSKAARQEKRFQDYNERCTFHHQAREFAVNLRNRVSAIHEVPPPRSFTFLNDACQGLEQARKVLAYACVYSFYSQDAEYMDVVEQQTENLELHTNALQILLEETLLRCRDLASSLRLLRADCLSTGMELLRRIQERLLAILQHSAQDFRVGLQSPSVEAWEAKGPNMPGSQPQASSGPEAEEEEEDDEDDVPEWQQDEFDEELDNDSFSYDESENLDQETFFFGDEEEDEDEAYD
Kd: 12 µM
